From paper PMC4829300 (RNA Biology, 2016)
One block for each molecule: values may come before it.

Key:
[1] = target: Prp43 92–767 (Saccharomyces cerevisiae, UniProt P53131); conditions: ATPase assay of the truncation; details in supplement
[2] = target: Prp43 1–657 (Saccharomyces cerevisiae, UniProt P53131); conditions: ATPase assay of the truncation; details in supplement
[3] = tested on: Prp43;Cmg1 (Saccharomyces cerevisiae?;Saccharomyces cerevisiae?); assay: fluorescence anisotropy
[4] = tested on: Prp43; assay: fluorescence anisotropy
[5] = target: His10-ZZ-TEV-tagged full length Prp43 (S. cerevisiae, UniProt P53131 1-767); assay: pull-down
[6] = target: His-GFP-tagged Prp43 (S. cerevisiae, UniProt P53131 1-767); assay: pull-down
Sequence of His-GFP-tagged Prp43 (P53131 whole entry): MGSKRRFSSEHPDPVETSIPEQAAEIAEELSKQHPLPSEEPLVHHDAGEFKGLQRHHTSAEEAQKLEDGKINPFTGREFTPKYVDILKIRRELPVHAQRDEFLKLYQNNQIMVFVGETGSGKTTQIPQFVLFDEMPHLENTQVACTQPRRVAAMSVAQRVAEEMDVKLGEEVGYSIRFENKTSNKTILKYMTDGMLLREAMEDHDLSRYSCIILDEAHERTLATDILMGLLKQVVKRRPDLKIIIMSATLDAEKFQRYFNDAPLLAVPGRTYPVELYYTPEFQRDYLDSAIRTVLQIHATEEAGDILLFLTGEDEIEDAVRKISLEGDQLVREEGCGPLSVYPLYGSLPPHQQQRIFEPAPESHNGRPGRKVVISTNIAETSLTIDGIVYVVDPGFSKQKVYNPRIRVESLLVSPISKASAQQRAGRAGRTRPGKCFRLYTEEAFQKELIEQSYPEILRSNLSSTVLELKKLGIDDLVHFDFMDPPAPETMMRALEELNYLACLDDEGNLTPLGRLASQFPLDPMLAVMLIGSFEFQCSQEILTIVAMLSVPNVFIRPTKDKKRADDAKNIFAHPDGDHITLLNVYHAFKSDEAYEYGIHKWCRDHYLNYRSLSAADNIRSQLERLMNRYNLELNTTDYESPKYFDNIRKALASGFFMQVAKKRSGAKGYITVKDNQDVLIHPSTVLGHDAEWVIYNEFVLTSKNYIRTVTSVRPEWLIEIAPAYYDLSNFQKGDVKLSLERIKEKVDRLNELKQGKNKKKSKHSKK

Sequence of His10-ZZ-TEV-tagged full length Prp43 (P53131 whole entry): as above
Sequence of Prp43 92–767 (P53131 92-767): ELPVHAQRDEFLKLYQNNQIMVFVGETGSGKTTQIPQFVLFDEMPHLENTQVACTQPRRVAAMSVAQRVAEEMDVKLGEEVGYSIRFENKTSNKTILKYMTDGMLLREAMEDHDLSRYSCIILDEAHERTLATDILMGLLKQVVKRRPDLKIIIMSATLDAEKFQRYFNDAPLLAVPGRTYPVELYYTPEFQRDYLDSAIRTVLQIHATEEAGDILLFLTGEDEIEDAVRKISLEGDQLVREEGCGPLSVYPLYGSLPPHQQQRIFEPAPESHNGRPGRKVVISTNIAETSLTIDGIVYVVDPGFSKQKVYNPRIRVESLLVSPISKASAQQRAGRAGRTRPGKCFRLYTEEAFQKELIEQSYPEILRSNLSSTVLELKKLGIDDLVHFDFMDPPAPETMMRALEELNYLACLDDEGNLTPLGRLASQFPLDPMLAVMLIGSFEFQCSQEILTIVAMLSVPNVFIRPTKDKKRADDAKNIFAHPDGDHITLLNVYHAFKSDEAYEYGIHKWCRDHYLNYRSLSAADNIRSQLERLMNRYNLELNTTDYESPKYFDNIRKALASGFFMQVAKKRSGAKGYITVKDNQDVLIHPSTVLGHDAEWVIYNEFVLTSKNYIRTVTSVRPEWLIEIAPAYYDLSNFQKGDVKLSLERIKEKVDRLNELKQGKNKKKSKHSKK
Sequence of Prp43 1–657 (P53131 1-657): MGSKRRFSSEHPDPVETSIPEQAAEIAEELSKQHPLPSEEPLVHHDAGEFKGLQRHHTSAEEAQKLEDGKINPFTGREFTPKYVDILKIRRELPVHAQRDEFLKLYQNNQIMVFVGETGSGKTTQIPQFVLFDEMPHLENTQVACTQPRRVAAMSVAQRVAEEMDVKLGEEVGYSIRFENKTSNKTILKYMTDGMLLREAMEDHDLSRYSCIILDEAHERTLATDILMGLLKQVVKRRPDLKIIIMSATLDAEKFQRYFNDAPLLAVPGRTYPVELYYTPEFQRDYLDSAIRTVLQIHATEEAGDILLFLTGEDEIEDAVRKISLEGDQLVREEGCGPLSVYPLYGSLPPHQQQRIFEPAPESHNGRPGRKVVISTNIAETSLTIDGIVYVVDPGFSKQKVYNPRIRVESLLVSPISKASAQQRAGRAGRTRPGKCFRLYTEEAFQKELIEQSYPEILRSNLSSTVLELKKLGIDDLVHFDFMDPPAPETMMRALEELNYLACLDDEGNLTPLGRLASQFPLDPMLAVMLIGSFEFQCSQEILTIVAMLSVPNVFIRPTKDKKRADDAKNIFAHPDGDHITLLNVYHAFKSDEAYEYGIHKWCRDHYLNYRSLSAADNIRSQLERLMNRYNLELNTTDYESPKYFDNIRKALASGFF

Molecule: Nc1ncnc2c1ncn2[C@@H]1O[C@H](COP(=O)(O)OP(=O)(O)OP(=O)(O)O)[C@@H](O)[C@H]1O [ATP]
NADH-coupled ATPase assay (pyruvate kinase / LDH), A340 [1]: the N- and C-terminal truncations of Prp43 themselves show ATPase activity
NADH-coupled ATPase assay (pyruvate kinase / LDH), A340 [2]: the N- and C-terminal truncations of Prp43 themselves show ATPase activity

Molecule: fluorescein-labeled 11 nt RNA
Kd [3]: 2.3 nM
Kd [4]: 60 nM

B1: His10-MBP-TEV-tagged Cmg1 1–85 (domain or fragment)
chain: MEESKTKRKEDRIDLKNTPPQKKSKRDSTNDETARTSLRSIMPRGYKMMENMGYKEGETLGSNESALKEPIKVEINTKRRGIRAE
binding result [5]: binds
binding result [6]: binds

B2: His10-MBP-TEV-tagged Sqs1 705–767 (domain or fragment)
chain: VKEGEIVGQNAPEIGNENIGRRMLEKLGWKSGEGLGIQGNKGISEPIFAKIKKNRSGLRHSES
binding result [6]: binds

B3: His10-ZZ-TEV-tagged Spp382 G-patch domain (amino acids 51–110) (domain or fragment)
chain: NAPTISKLTKTYGIGAKLLSSMGYVAGKGLGKDGSGITTPIETQSRPMHNAGLGMFSNTN
binding result [6]: binds

The next lines start with the values.

binding result [6]: binds
B4: His10-ZZ-TEV-tagged Cmg1 (natural protein)
chain: MEESKTKRKEDRIDLKNTPPQKKSKRDSTNDETARTSLRSIMPRGYKMMENMGYKEGETLGSNESALKEPIKVEINTKRRGIRAEKPDPSTMNDMQMSEQRFIKRESEMKNNKRLKKIWYRIQKVAFEMMGDSDLYNPGEDPRDFNVLWRSYVMQLNEEVAKNDLNNHSNNDNEDKNNMIPMVNESLEASPAIKGEKFGRPSTLIDCDTSIIGSRITKDTELAELEELSIEKRITKLNIFLRSEKYYCFFCGIKYKDEGDLYEHCPGVNEDDHK

binding result [5]: binds
B5: MBP-tagged full length Cmg1 (natural protein)
chain: MEESKTKRKEDRIDLKNTPPQKKSKRDSTNDETARTSLRSIMPRGYKMMENMGYKEGETLGSNESALKEPIKVEINTKRRGIRAEKPDPSTMNDMQMSEQRFIKRESEMKNNKRLKKIWYRIQKVAFEMMGDSDLYNPGEDPRDFNVLWRSYVMQLNEEVAKNDLNNHSNNDNEDKNNMIPMVNESLEASPAIKGEKFGRPSTLIDCDTSIIGSRITKDTELAELEELSIEKRITKLNIFLRSEKYYCFFCGIKYKDEGDLYEHCPGVNEDDHK

binding result [6]: binds
B6: His10-MBP-TEV-tagged Pxr1 1–82 (domain or fragment)
chain: MGLAATRTKQRFGLDPRNTAWSNDTSRFGHQFLEKFGWKPGMGLGLSPMNSNTSHIKVSIKDDNVGLGAKLKRKDKKDEFDN
